Entries after “also recorded” stand apart in the source; their conditions may differ.
Tests used:
Type in all cases: biochemical
CAPN1 WT [1] = molecular target: T1, CAPN1 WT (Homo sapiens, UniProt P07384); test: Inhibition of CAPN1 WT proteolysis of EPLFAERK substrate
T1 sequence (P07384 1-714): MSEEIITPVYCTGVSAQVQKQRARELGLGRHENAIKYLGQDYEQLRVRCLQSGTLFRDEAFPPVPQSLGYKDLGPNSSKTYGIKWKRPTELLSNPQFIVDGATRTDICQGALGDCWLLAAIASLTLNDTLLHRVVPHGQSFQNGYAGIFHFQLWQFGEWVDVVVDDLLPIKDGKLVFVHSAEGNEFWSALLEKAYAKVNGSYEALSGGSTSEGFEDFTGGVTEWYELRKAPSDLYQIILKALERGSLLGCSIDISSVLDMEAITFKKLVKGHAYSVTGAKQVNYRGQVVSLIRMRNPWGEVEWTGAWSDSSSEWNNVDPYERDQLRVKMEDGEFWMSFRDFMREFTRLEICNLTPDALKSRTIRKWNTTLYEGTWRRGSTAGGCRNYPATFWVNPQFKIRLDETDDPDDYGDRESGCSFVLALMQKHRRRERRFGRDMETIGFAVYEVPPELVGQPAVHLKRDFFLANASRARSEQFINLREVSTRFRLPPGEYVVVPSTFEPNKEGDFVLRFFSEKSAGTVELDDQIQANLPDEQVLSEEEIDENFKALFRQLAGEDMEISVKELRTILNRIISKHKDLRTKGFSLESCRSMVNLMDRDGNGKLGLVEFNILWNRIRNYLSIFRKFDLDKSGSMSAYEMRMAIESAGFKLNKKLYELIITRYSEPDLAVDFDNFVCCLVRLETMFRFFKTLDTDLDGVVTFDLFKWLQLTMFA
Method: (§1) FIG. 15A: Various concentrations of SNJ-1945 were incubated in a reaction with 50 μM EPLFAERK (SEQ ID NO: 22) (a CAPN1 substrate) and CAPN1 WT in activity. Data is plotted for CAPN1 as initial velocity (μM/sec) versus SNJ-1945 concentration. Addition of 1 μM SNJ-1945 slows the initial reaction rate by 100%. FIG. 15B: CAPN1 WT was incubated with and without SNJ-1945 at increasing concentrations of EPLFAERK substrate (SEQ ID NO: 22). Data is plotted for CAPN1 as initial velocity (μM/sec) versus substrate concentration. FIG. 15C: Various concentrations of SNJ-1945 were incubated in a reaction with CAPN5p.370-80 and CAPN5 WT in an activity buffer. Data is plotted for CAPN5 as initial velocity (μM/sec) versus SNJ-1945 concentration. Only after addition of 100 μM SNJ-1945 did the initial reaction rate slow to 100%. FIG. 15D: CAPN5 WT was incubated with and without SNJ-1945 at increasing concentrations of CAPN5 p.370-80 substrate. Data is plotted for CAPN5 as initial velocity (μM/sec) versus substrate concentration.
Various concentrations of SNJ-1945 were incubated in a reaction with 50 μM EPLFAERK (a CAPN1 substrate) (SEQ ID NO: 22) and CAPN1 WT in activity. Addition of 1 μM SNJ-1945 slows the initial reaction rate by 100% (FIG. 15A). CAPN1 WT was incubated with and without SNJ-1945 at increasing concentrations of EPLFAERK substrate (SEQ ID NO: 22) (FIG. 15B). […]

CAPN5 WT [2] = molecular target: T2, CAPN5 WT (Homo sapiens, UniProt O15484); test: Inhibition of CAPN5 WT proteolysis of CAPN5p.370-80 substrate; conditions: for effect of increasing substrate concentration on inhibition of CAPN5: increasing concentrations of CAPN5 p.370-80 substrate, with and without inhibitor
Method: as §1
FIGS. 16A-16B. […] First generation lead compound CAPN5 p.370-80 was modified using amide cyclization to generate a second generation competitive cyclic inhibitor. (FIG. 16A) Various concentrations of Cyclic CAPN5 p.370-80 were incubated in a reaction with CAPN5p.370-80 and CAPN5 WT in an activity buffer. Data is plotted for CAPN5 as initial velocity (μM/sec) versus Cyclic CAPN5 p.370-80 concentration. Addition of 10 μM Cyclic CAPN5 p.370-80 slows the initial reaction rate by 40%. (FIG. 16B) CAPN5 WT was incubated with and without 10 μM Cyclic CAPN5 p.370-80 at increasing concentrations of CAPN5 p.370-80 substrate. Data is plotted for CAPN5 as initial velocity (μM/sec) versus substrate concentration.
Various concentrations of SNJ-1945 were incubated in a reaction with 50 μM EPLFAERK (a CAPN1 substrate) (SEQ ID NO: 22) and CAPN1 WT in activity. Addition of 1 μM SNJ-1945 slows the initial reaction rate by 100% (FIG. 15A). CAPN1 WT was incubated with and without SNJ-1945 at increasing concentrations of EPLFAERK substrate (SEQ ID NO: 22) (FIG. 15B). Various concentrations of SNJ-1945 were incubated in a reaction with CAPN5p.370-80 and CAPN5 WT in an activity buffer. Only after addition of 100 μM SNJ-1945 did the initial reaction rate slow to 100% (FIG. 15C). CAPN5 WT was incubated with and without SNJ-1945 at increasing concentrations of CAPN5 p.370-80 substrate (FIG. 15D).
First generation lead compound CAPN5 p.370-80 was modified using amide cyclization to generate a second generation competitive cyclic inhibitor. Various concentrations of Cyclic CAPN5 p.370-80 were incubated in a reaction with CAPN5p.370-80 and CAPN5 WT in an activity buffer. Addition of 10 μM Cyclic CAPN5 p.370-80 slows the initial reaction rate by 40% (FIG. 16A). CAPN5 WT was incubated with and without 10 μM Cyclic CAPN5 p.370-80 at increasing concentrations of CAPN5 p.370-80 substrate.

CAPN5 WT [3] = molecular target: T2, CAPN5 WT; test: FRET peptide proteolysis assay with CAPN5-WT; set-up: MBP (N); conditions: for proteolysis of peptide substrate by CAPN5-WT (fluorescence): FRET peptide, calpain activity buffer, 37° C.
Method: (§2) FIG. 2. Diagram of Assay. 10 uM of FRET substrates were added to a solution containing 2 mM DTT, 5 uM Calcium, and CAPN5 Buffer (20 mM Tris, 300 mM NaCl, pH 7.5) to a volume of 100 uL. The solution was pipetted into a 96 well plate in wells that contained 24 uM of CAPN5-WT, CAPN5-R243L, or no CAPN5. The fluorescence of each well was measured using a Tecan Infinite M200 Pro plate reader.
(§3) Peptide substrates dissolved in DMSO and H2O were incubated with WT CAPN5 at 37° C. in the presence or absence of calcium until a change in fluorescence was no longer detected. […] As expected, R243LCAPN5 (hyperactive) cleaved substrate fragments at a higher rate (FIG. 4). Inhibitor peptides were identified that serve as the lead compounds for optimization.
Proteolytic kinetics of CAPN5 is influenced by peptide length near its autoproteolytic site. Peptides substrates that were 7, 11, and 21 amino acids long were incubated in calpain activity buffer. The solution was brought to 37° C. CAPN5 was then added and fluorescence was measured. […] The kinetics data from the Michaelis-Menten and substrate inhibition equations are shown in a table (FIG. 12D).
(§4) Peptides were incubated in calpain activity buffer, and the solution was brought to 37° C. Calpain was added and fluorescence was measured. The fluorescence measured for the lead peptide, CAPN5p370-380, was plotted and lines were fit using the following substrate inhibition equation, Y=Vmax*X/(Km+X*(1+X/Ki)). […] The fluorescence measure for a previously published calpain-1 peptide, EPLFAERK (SEQ ID NO: 22), was plotted and lines were fit using the following Michaelis-Menten equation, Y=Vmax*X/(Km+X) (FIG. 13B). […] Kinetics data from the Michaelis-Menten and substrate inhibition equations are shown in a table (FIG. 13C).
Scanning modifications were made to the amino acids of the lead compound to make the bonds un-cleavable by CAPN5 (FIG. 18B). Despite modifications, the peptide still fit in the catalytic groove using docking predictions. N-terminal (EDANS) and C-terminal GLU-(DABCYL) FRET tags were added to the peptides for our standard CAPN5 assay and were dissolved in 70% DMSO (FIG. 18C). Peptides incubated for 15 minutes at various concentrations with 5 μg of MBP-CAPN5 WT. Modification of the amino acids slows the reaction rate. Data is plotted as initial velocity (uM/sec) versus peptide concentration fit to the substrate inhibition equation (FIG. 18D).
The CAPN5-370-80 peptide was modified (FIGS. 19A-19G) and the activity was evaluated (FIGS. 20A-20D). Scanning modifications were made to the amino acids of the peptide to make the bonds un-cleavable by CAPN5. The location of the modifications are denoted with circles N-terminal (EDANS) and C-terminal GLU-(DABCYL) FRET tags were added to the peptides for the standard CAPN5 assay and were dissolved in 70% DMSO. Peptides incubated for 15 minutes at various concentrations with 5 μg of MBP-CAPN5 WT in a buffer containing 20 mM Tris, 300 mM NaCl, 2 mM DTT, pH 7.5 to measure activity (FIG. 20C). Data is plotted as initial velocity (uM/sec) versus peptide concentration. Modification of the amino acids slows the reaction rate.

CAPN1 WT [4] = molecular target: T1, CAPN1 WT; test: FRET peptide proteolysis assay with CAPN1; conditions: calpain activity buffer, 37° C.
Method: as §4
CAPN5 specifically targets a peptide corresponding to its own autocatalytic site and not homologous regions in other calpains. […] Peptides corresponding to the homologous regions of the CAPN5 autoprotolysis site in other calpain family members were incubated with CAPN5 protease. […] Peptides tested in FIG. 14B were incubated with CAPN1. […] Kinetics data from the Michaelis-Menten and substrate inhibitions equations are shown in a table (FIG. 14D).

CAPN5-R243L = CAPN5-R243L (Homo sapiens, UniProt O15484, R243L); test: FRET peptide proteolysis assay with CAPN5-R243L; conditions: hyperactive R243L mutant
Method: as §2, §3

CAPN5-R243L, sequence (O15484 whole entry R243L): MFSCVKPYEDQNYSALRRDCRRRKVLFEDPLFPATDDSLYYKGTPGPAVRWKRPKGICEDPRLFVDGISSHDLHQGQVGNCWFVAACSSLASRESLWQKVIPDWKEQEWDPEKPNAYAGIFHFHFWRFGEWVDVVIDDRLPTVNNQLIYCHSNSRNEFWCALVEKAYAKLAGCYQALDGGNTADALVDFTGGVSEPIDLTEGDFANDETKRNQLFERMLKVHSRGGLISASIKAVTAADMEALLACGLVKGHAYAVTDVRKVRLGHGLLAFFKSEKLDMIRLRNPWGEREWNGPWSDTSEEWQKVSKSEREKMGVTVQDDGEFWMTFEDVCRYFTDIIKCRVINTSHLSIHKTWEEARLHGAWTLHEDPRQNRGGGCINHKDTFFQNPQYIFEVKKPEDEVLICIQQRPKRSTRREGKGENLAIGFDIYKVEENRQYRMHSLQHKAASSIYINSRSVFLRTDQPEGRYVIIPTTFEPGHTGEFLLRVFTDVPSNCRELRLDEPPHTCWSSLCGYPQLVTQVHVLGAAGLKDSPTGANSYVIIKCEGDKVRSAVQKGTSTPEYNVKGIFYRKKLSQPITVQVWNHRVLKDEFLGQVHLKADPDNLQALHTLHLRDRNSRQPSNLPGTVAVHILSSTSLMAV
T2 sequence (O15484 whole entry): as the sequence (O15484 whole entry R243L) above, with L243R counted along it

COCCOCCOC(=O)N[C@@H](CC(C)C)C(=O)N[C@@H](Cc1ccccc1)C(=O)C(=O)NC1CC1 [SNJ-1945]
inhibition of CAPN1 (in words) (CAPN1 WT [1]): inhibits CAPN1 | slowing of initial reaction rate of CAPN1 (CAPN1 WT [1]; 1 μM SNJ-1945, 50 μM EPLFAERK substrate): 100% | inhibition of CAPN5 (in words) (CAPN5 WT [2]): not a good inhibitor of CAPN5 | slowing of initial reaction rate of CAPN5 (CAPN5 WT [2]; 100 μM SNJ-1945, CAPN5p.370-80 substrate): 100% | effect of increasing substrate concentration on inhibition of CAPN5 (CAPN5 WT [2]): overcomes the inhibition

CAPN5p.372-378: 7 amino acid peptide substrate near the CAPN5 autoproteolytic site (NRGGGCI)
proteolysis of peptide substrate by CAPN5-WT (fluorescence) (CAPN5 WT [3]): mild cleavage

CAPN14 peptide: peptide of the CAPN14 region homologous to the CAPN5 autoproteolysis site (RGFNSGGSQPNAETFWTNPQFR; listed as Homo sapiens)
proteolysis of peptide substrate by CAPN5-WT (fluorescence) (CAPN5 WT [3]): some proteolysis

Cyclic CAPN5 p.370-80: CAPN5 p.370-80 modified by amide cyclization, second generation competitive cyclic inhibitor
slowing of initial reaction rate of CAPN5 (CAPN5 WT [2]; 10 μM Cyclic CAPN5 p.370-80, CAPN5p.370-80 substrate): 40% | effect of increasing substrate concentration on inhibition of CAPN5 (CAPN5 WT [2]): does not overcome inhibition

EPLFAERK [reference compound]
proteolysis of peptide substrate by CAPN5-WT (fluorescence) (CAPN5 WT [3]): not proteolyzed by CAPN5; also recorded: very limited proteolysis | proteolysis of peptide substrate by CAPN1 (fluorescence) (CAPN1 WT [4]): specific to CAPN1; also recorded: high proteolysis

KIEIVRKKPIFKKATV [PDGFB (155-170)]
proteolysis of peptide substrate by CAPN5-R243L (fluorescence) (CAPN5-R243L): greatest fluorescent intensity

RQNRGGGCINH (listed as Homo sapiens) [CAPN5-370-380]
proteolysis of peptide substrate by CAPN5-WT (fluorescence) (CAPN5 WT [3]): most sensitive to cleavage | proteolysis of peptide substrate by CAPN5-WT (fluorescence) (CAPN5 WT [3]; listed as 11 aa peptide): rapid and high cleavage | proteolysis of peptide substrate by CAPN5-WT (fluorescence) (CAPN5 WT [3]; listed as CAPN5 (370-380)): specific to CAPN5 | proteolysis of peptide substrate by CAPN5-WT (fluorescence) (CAPN5 WT [3]; listed as CAPN5 (p370-380)): greatest fluorescent intensity | proteolysis of peptide substrate by CAPN5-WT (fluorescence) (CAPN5 WT [3]; listed as CAPN5p370-380): high proteolysis | proteolysis of peptide substrate by CAPN5-R243L (fluorescence) (CAPN5-R243L): most sensitive to cleavage | proteolysis of peptide substrate by CAPN5-R243L (fluorescence) (CAPN5-R243L; listed as CAPN5 (370-380)): greatest fluorescent intensity | proteolysis of peptide substrate by CAPN1 (fluorescence) (CAPN1 WT [4]; listed as CAPN5 (370-380)): not proteolyzed by CAPN1 | proteolysis of peptide substrate by CAPN1 (fluorescence) (CAPN1 WT [4]; listed as CAPN5p370-380): very limited proteolysis

RQNRGGGCINHKDTFFQNPQY (listed as Homo sapiens) [CAPN5-370-390]
proteolysis of peptide substrate by CAPN5-WT (fluorescence) (CAPN5 WT [3]): cleaved slower | substrate inhibition of CAPN5 cleavage (CAPN5 WT [3]; peptide length series near autoproteolytic site): does not show cleavage substrate inhibition | proteolysis of peptide substrate by CAPN5-R243L (fluorescence) (CAPN5-R243L): greatest fluorescent intensity
